B1: PR001147 (antibody, human IgG1, kappa, V domains shown)
VH: QVNLVESGGGVVQPGRSLKLSCAASGFTFSSYGMHWVRQAPGKGLEWVAFIWSDGTNRYYPESVKGRFTISRDDSRNTVSLQMNSLRPEDTAVYYCARDGWGTYGEYFQHWGQGTLVTVSS
VL: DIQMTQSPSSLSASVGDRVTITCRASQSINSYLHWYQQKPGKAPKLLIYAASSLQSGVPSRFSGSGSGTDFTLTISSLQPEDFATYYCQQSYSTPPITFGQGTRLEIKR
notes: fully human IgG1/kappa; also called antibody No. (12)
B2: PR001134 (antibody, human IgG1, kappa, V domains shown)
VH: QVQLVESGGGVVQPGRSLRVSCIASGFFFSSYGMHWVRQAPGKGLEWVAVIWYDGSNEDYVDSVKGRFTISRDNSKNTLYLQMNSLRGEDTAMYYCARGGYNSGWWAFDIWGQGTMVTVSS
VL: DIQMTQSPSSLSASVGDRVTITCRASQGISHFLAWYQQKPGKVPKLLIYAASTLQSGVPSRFSGSGSGTDFTLTISSLQPEDVATYYCQKFNSAPLTFGGGTKVEIKR
notes: fully human IgG1/kappa; also called antibody No. (6)
B3: PR001145 (antibody, human IgG1, kappa, V domains shown)
VH: QVQLVESGGGVVQPGRSLRLSCAASGFTFSSFGMQWVRQGPGKGLEWVAIMWFDGSNKYYVDSVKGRFTISRDNSKNTLYLQMNSLRAEDTAVYYCARLDFSGWPLIDYWGQGTLVTVSS
VL: not shown
notes: fully human IgG1/kappa; also called antibody No. (11)
B4: PR001160 (antibody, human IgG1, kappa, V domains shown)
VH: QVQLVESGGGVVQPGRSLRLSCEASGFTFSHYGMHWVRQAPGKGLEWVAVIWYDGIMKNYIESVKGRFTISRDNSKNTLYLQMNRLRAEDTAVYYCARDGGFGELNYYGLDVWGQGTTVTVSS
VL: DIQLTQSPSFLSASVGDRVTITCRASQGISSYLGWYQQKPGKAPKLLIYVASTLQSGVPSRFSGSGSGTEFTLTISSLQPEDFATYYCQQLNSYPYTFGQGTKLEIKR
notes: fully human IgG1/kappa; also called antibody No. (22)
B5: PR001163 (antibody, human IgG1, kappa, V domains shown)
VH: B4 VH with G10D, I51V, M57K, N59Y, I61V
VL: B4 VL
notes: fully human IgG1/kappa; also called antibody No. (24)

The text below walks through data of patent US20240067748A1 (NONA BIOSCIENCES SUZHOU, published 2024).

Residue numbers refer to the chain shown, from its start.

As a reminder, the Kd is the free concentration of one partner at which half of the binding sites on the other are occupied at equilibrium, for simple one-to-one binding. Usually koff stands for the rate constant with which the complex falls apart. As a reminder, the kon is a measure of how fast the partners come together. The term EC50 denotes the concentration needed to bring the measured effect to its halfway point.

The first assay has as its target T1, monkey Trop2 protein (Sino Biological, #90893-C08H) (monkey, UniProt A0A2K5UE71 27-274).
T1 construct: bought protein; also called monkey Trop2 protein antigen (His tag)
T1 sequence: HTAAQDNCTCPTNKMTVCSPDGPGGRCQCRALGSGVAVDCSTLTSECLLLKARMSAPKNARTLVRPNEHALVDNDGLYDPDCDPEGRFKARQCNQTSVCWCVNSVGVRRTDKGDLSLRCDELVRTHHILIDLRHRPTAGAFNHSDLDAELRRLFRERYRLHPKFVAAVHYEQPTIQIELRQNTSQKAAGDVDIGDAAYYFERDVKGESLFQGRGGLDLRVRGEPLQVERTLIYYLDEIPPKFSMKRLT
Briefly: BLI, Octet RED96; ratio against KD for human Trop2 protein. The procedure:
(§1) Specifically, a human TROP2 protein (Sino Biological, #10428-H08H) or a monkey Trop2 protein (Sino Biological, #90893-C08H) was diluted to 200 nM with a PBS buffer (pH 7.4) containing 0.1% (w/w) BSA and 0.02% (v/v) tween 20, and incubated with the AHC sensor respectively. 40 nM Trop2 antibody was incubated at 30° C. for 3 min with the AHC sensor loaded with the human Trop2 protein or monkey Trop2 protein respectively. The reaction mixture was incubated at 30° C. for another 5 min in a PBS buffer (pH 7.4) containing 0.1% (v/w) BSA and 0.02% (v/v) Tween 20. The association and dissociation signals between the Trop2 antibody and the human Trop2 protein or monkey Trop2 protein were recorded by Octet Red 96 in real time. The affinity and the association and dissociation constants were determined by Octet using software.
A general note: BLI is a label-free optical method that tracks binding on a fibre tip over time.
As to B1, the “KD (monkey)/KD (human)” value worked out at 3.86.

Take B2: the “KD (monkey)/KD (human)” value was 1.72.

With B3, the “KD (monkey)/KD (human)” value was 1.3.

In the case of B4, the “KD (monkey)/KD (human)” value is 2.22.

Consider B5, for which the “KD (monkey)/KD (human)” value was found to be 2.48.

The target in another assay is T2, human TROP2 protein (Sino Biological, #10428-H08H) (human, UniProt P09758 27-274).
T2 construct: bought protein; also called human Trop2 protein antigen (His tag); not shown: His tag
T2 sequence (looked up): T1 sequence with V36M, E46K, N67S, V204I
Nature of the assay: BLI, Octet RED96, AHC sensor. The procedure: as §1
Take B1: the Kd is 0.498 nM, the Response came out at 0.349, the koff was 4.23e-05 s⁻¹ and the kon was 85000 M⁻¹ s⁻¹.

B2: the Kd worked out at 5.42 nM, the Response turned out to be 0.354, the koff is 0.000451 s⁻¹ and the kon worked out at 83100 M⁻¹ s⁻¹.

As for B3, the Kd worked out at 14.7 nM, the Response worked out at 0.29, the koff came to 0.00135 s⁻¹ and the kon was 91900 M⁻¹ s⁻¹.

The molecule B4 yielded a Kd of 0.819 nM, a Response of 0.39, a koff of 9.48e-05 s⁻¹ and a kon of 116000 M⁻¹ s⁻¹.

B5 yielded a Kd of 0.79 nM, a Response of 0.396, a koff of 8.34e-05 s⁻¹ and a kon of 106000 M⁻¹ s⁻¹.

The target of another assay is T1, monkey Trop2 protein (Sino Biological, …). Nature of the assay: BLI, Octet RED96, AHC sensor. The procedure: as §1
B1 gave a Kd of 1.92 nM, a Response of 0.341, a koff of 0.000117 s⁻¹ and a kon of 60900 M⁻¹ s⁻¹.

For B2, binding was characterised by a dissociation constant (Kd) of 9.33 nM, the Response was found to be 0.335, the koff was found to be 0.000512 s⁻¹ and the kon is 54900 M⁻¹ s⁻¹.

B3: binding was characterised by a dissociation constant (Kd) of 19.1 nM, the Response was 0.277, the koff worked out at 0.00134 s⁻¹ and the kon was found to be 70100 M⁻¹ s⁻¹.

The molecule B4 had a Kd of 1.82 nM, a Response of 0.36, a koff of 0.000135 s⁻¹ and a kon of 74300 M⁻¹ s⁻¹.

B5 displayed a Kd of 1.96 nM, a Response of 0.372, a koff of 0.000134 s⁻¹ and a kon of 68400 M⁻¹ s⁻¹.

The target of the next assay is T3, human Trop2 on cells (human, UniProt P09758 27-323).
T3 construct: whole, on cells; also called hTrop2; 293T-human Trop2 cells
T3 sequence (looked up): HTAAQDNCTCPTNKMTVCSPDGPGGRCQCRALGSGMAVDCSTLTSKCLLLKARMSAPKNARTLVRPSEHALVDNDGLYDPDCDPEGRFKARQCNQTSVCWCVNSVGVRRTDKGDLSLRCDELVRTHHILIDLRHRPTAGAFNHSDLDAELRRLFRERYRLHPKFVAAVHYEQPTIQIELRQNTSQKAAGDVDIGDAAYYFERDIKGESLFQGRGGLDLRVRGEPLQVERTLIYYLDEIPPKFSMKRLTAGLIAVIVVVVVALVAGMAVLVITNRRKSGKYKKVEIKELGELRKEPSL
Briefly: flow cytometry on 293T-human Trop2 cells. The procedure:
The cell density was determined, and the cells were resuspended to 1×10⁶ cells/mL in PBS. 100 μL of cell suspension was taken from each well and added to a 96 well V-bottom plate. The 96-well V-bottom plate was centrifuged at 1000 rpm for 5 min and washed once with PBS+0.5% BSA (VWR, #0332-100G). […] After 1 h, the cells were washed twice with PBS+0.5% BSA. The cells were incubated with 100 μL of Alexa Fluor 488 goat anti-human IgG (Life technologies, 1:1000, #A-11013) at 4° C. for 1 h in the dark, and washed twice with PBS+0.5% BSA. The cells were resuspended in 200 μL of PBS+0.5% BSA. The fluorescence intensity of the cells was analyzed using a FACS verse flow cytometer. All procedures were performed on ice.
(In flow cytometry, cells or beads pass a laser one at a time.)
As for B1, the EC50 was found to be 1.31 nM, the “Maximum (MFI)” value is 7420 MFI and the Top % amounted to 115%.

On to B2, for which the EC50 stood at 0.653 nM, the “Maximum (MFI)” value was found to be 6040 MFI and the Top % was 93.2%.

Take B3: the EC50 amounted to 0.48 nM, the “Maximum (MFI)” value worked out at 7030 MFI and the Top % is 108%.

B4: the EC50 is 1.22 nM, the “Maximum (MFI)” value was found to be 6710 MFI and the Top % is 104%.

Regarding B5, the EC50 came to 0.496 nM, the “Maximum (MFI)” value is 5990 MFI and the Top % was determined as 92.4%.
